Molecular target: T1, ACE2 tested for a complex with GMI by immunoprecipitation (human, UniProt Q9BYF1 18-805)
T1 construct: also called hACE2; angiotensin converting enzyme 2
Experiment: immunoprecipitation

T1 sequence (Q9BYF1 18-805 limits assumed, one chain of several): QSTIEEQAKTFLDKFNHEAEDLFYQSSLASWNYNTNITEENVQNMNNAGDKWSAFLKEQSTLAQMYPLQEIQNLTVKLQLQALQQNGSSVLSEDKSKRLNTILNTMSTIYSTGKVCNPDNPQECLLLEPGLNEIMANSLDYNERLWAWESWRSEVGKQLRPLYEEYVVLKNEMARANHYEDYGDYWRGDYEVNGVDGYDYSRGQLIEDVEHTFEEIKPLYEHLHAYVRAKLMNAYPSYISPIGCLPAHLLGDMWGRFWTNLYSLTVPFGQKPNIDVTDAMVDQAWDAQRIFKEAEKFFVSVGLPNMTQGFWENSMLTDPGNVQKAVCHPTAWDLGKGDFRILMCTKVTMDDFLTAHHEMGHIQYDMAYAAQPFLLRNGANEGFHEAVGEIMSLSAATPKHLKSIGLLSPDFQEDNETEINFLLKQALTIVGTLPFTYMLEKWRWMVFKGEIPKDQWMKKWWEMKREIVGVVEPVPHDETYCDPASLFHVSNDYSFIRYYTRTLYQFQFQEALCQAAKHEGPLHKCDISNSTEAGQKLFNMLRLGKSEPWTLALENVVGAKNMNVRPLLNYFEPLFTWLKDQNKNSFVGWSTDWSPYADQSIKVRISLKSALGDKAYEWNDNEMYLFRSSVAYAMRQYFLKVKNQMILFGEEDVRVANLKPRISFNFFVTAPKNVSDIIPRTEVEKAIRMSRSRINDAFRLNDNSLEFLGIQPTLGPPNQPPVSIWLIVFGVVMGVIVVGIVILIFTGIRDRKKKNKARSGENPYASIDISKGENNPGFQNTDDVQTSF

B1: Ganoderma immunomodulatory protein (GMI) from Ganoderma microsporum (other)
chain: MSDTALIFTLAWNVKQLAFDYTPNWGRGRPSSFIDTVTFPTVLTDKAYTYRVVVSGKDLGVRPSYAVESDGSQKINFLEYNSGYGIADTNTIQVYVIDPDTGNNFIVAQWN
notes: also called His tagged-GMI; fungal immunomodulatory protein (FIP)
binding result: no binding

From US20230233632A1 (MYCOMAGIC BIOTECHNOLOGY, published 2023)
